Patent US20260049151A1 (SHENGHE CHINA BIOPHARMACEUTICAL, published 2026)
Like-named read-outs stand apart in the source and are kept apart here.

T1: Human-TNFR2-His (human, UniProt P20333 23-257)
T1 construct: Bought protein; also called human TNFR2 protein; TNFR2 protein; not shown: His tag
T1 sequence (looked up): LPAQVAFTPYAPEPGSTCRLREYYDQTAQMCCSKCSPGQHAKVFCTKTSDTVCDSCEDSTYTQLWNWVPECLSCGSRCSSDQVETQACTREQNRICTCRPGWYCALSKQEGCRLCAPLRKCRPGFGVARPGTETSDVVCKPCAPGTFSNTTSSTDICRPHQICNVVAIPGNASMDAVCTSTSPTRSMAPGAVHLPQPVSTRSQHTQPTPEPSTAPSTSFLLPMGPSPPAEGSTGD


Experiments:
Human 4-1BB His [1] = target: T2, Human 4-1BB His (human, UniProt Q07011 24-186); experiment: BLI, antibody on AHC sensor, 100 nM 4-1BB His in solution
T2 construct: Bought protein; lots 198-2146F1-W6 and 2407c-214FF1-YC; also called human 4-1BB protein; 4-1BB protein; not shown: His tag
Excerpt: (§1) The variable region of the antibody sequence of the positive control consists of SEQ ID NO: 15 and SEQ ID NO: 19, with the addition of the constant region of human IgG1 (SEQ ID NO: 46 and SEQ ID NO: 47). The AHC sensor was soaked in 0.02% PBST (0.02% Tween 20, pH 7.4, 1× PBS) as a buffer for 600 s to remove the sucrose covering the sensor surface. The AHC sensor was equilibrated with 0.02% PBST (0.02% Tween 20, pH 7.4, 1× PBS) as a buffer for 60 s, the antibody in the sample plate was solidified for 300 s, and the secondary equilibration buffer was used for 180 s. 100 nM human 4-1BB His (manufacturer: Acro, CAT: 41B-H5258, LOT: 198-2146F1-W6) protein was bound to the antibody for 300 s and then dissociated for 600 s. After dissociation, 10 mM glycine (pH 2.0) was used as a regeneration buffer for 30 s. The sensor was regenerated with 10 mM glycine (pH 2.0).

Human 4-1BB His [2] = target: T2, Human 4-1BB His; experiment: ELISA: Human 4-1BB His coated (0.2 ug/mL), antibody titrated, goat anti-human IgG Fc detection (Example 3)
Description: (§2) Human 4-1BB His (manufacturer: Acro, CAT: 41B-H5258, LOT: 198-2146F1-W6) was diluted to 0.2 μg/mL with a coating solution (1×PBS, pH7.4), and coated in 96-well ELISA plate at 100 μL/well overnight at 4° C. The coating solution was poured off. Each well was washed with 1×PBST at 300 μL, washed 4 times with a plate washer, and patted dry on a flat paper. It was blocked with 3% skim milk powder at 300 μL/well, and incubated at 37° C. for 1 h. The blocking solution was poured off, washed 4 times with a plate washer, and patted dry on a flat paper. Negative control and positive control were set up. […] The variable region of the antibody sequence of the positive control consists of SEQ ID NO: 15 and SEQ ID NO: 19, with the addition of the constant region of human IgG1 (SEQ ID NO: 46 and SEQ ID NO: 47). The positive control and antibody were diluted to 10 μg/mL with 3% skim milk powder as the starting concentration, and then diluted by 3-fold gradient (11 gradients in total), and a blank well was set up and only the diluent was added. It was incubated at 37° C. for 1 h at 100 μL/well. The liquid in the well was discarded, washed 4 times with a plate washer, and patted dry on a flat paper. Goat anti-human IgG Fc was diluted with 3% skim milk powder at 1:20000, and incubated at 37° C. for 1 h at 100 μL/well. It was washed 6 times with a plate washer, and patted dry on a flat paper. TMB color developing solution was added at 100 μL/well, and wrapped with aluminum foil. Color development was performed at 37° C. in the dark for 8 min. Termination solution 1M HCl was added to terminate the color development reaction at 100 μL/well. Readings were taken at 450 nm on an ELISA reader.

Human 4-1BB His [3] = target: T2, Human 4-1BB His; experiment: as above; remark: listed apart in the source
Description: as §2

Human 4-1BB His [4] = target: T2, Human 4-1BB His; experiment: as above; remark: listed apart in the source
Description: as §2

Human 4-1BB His [5] = target: T2, Human 4-1BB His; experiment: as above; remark: listed apart in the source
Description: as §2

Human 4-1BB His [6] = target: T2, Human 4-1BB His; experiment: as above; remark: listed apart in the source
Description: as §2

Human 4-1BB His [7] = target: T2, Human 4-1BB His; experiment: as above; remark: listed apart in the source
Description: as §2, with “It was washed 6 times with a plate washer, and patted dry on a flat paper. TMB color developing solution was added at 100 μL/well, and wrapped with aluminum foil. Color development was performed at 37° C. in the dark for 8 min. Termination solution 1M HCl was added to terminate the color development reaction at 100 μL/well.” left out

Human-TNFR2-His [8] = target: T1, Human-TNFR2-His; experiment: BLI, antibody on AHC sensor, 100 nM TNFR2-His in solution
Description: as §1, with “The” for “The variable region of the antibody sequence of the positive control consists of SEQ ID NO: 15 and SEQ ID NO: 19, with the addition of the constant region of human IgG1 (SEQ ID NO: 46 and SEQ ID NO: 47). The”, “1×PBS)” for “1× PBS)”, “human-TNFR2-His” for “human 4-1BB His”, “SINO,” for “Acro,”, “10417-H08H,” for “41B-H5258,”, “LC15NO0412)” for “198-2146F1-W6)”

Human-TNFR2-His [9] = target: T1, Human-TNFR2-His; experiment: ELISA: Human-TNFR2-His coated (0.1 ug/mL), antibody titrated, goat anti-human IgG Fc detection (Example 2)
Human-TNFR2-His [10] = target: T1, Human-TNFR2-His; experiment: as above; remark: listed apart in the source
Description: (§3) Human-TNFR2-His (manufacturer: SINO, CAT: 10417-H08H, LOT: LC15NO0412) was diluted to 0.1 μg/mL with a coating solution (1×PBS, pH7.4), and coated in 96-well ELISA plate at 100 µL/well overnight at 4° C. The coating solution was poured off. Each well was washed with 1×PBST at 300 μL, washed 4 times with a plate washer, and patted dry on a flat paper. It was blocked with 3% skim milk powder at 300 μL/well, and incubated at 37° C. for 1 h. The blocking solution was poured off, washed 4 times with a plate washer, and patted dry on a flat paper. Negative control and positive control were set up. […] The positive control and antibody were diluted to 10 μg/mL with 3% skim milk powder as the starting concentration, and then diluted by 3-fold gradient (11 gradients in total), and a blank well was set up and only the diluent was added. It was incubated at 37° C. for 1 h at 100 μL/well. The liquid in the well was discarded, washed 4 times with a plate washer, and patted dry on a flat paper. Goat anti-human IgG Fc was diluted with 3% skim milk powder at 1:10000, and incubated at 37° C. for 1 h at 100 μL/well. It was washed 6 times with a plate washer, and patted dry on a flat paper. TMB color developing solution was added at 100 μL/well, and wrapped with aluminum foil. Color development was performed at 37° C. in the dark for 8 min. Termination solution 1M HCl was added to terminate the color development reaction at 100 μL/well. Readings were taken at 450 nm on an ELISA reader.

Human-TNFR2-His [11] = target: T1, Human-TNFR2-His; experiment: as above; remark: listed apart in the source
Description: as §3

Human-TNFR2-His [12] = target: T1, Human-TNFR2-His; experiment: as above; remark: listed apart in the source
Description: as §3, with “Termination solution 1M HCl was added to terminate the color development reaction at 100 μL/well.” left out

T2 sequence (Q07011 24-186 limits assumed): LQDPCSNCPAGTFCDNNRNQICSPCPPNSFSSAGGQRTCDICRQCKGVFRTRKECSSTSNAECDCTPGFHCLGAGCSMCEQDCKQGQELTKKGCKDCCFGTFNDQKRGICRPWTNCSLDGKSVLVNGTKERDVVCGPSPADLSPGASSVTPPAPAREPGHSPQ

Kd (Human 4-1BB His [1]) [nM]	koff (Human 4-1BB His [1]) [s⁻¹]	kon (Human 4-1BB His [1]) [M⁻¹ s⁻¹]	EC50 (read off the curve) (Human 4-1BB His [2]) [nM]	EC50 (read off the curve) (Human 4-1BB His [3]) [nM]	EC50 (read off the curve) (Human 4-1BB His [4]) [nM]	EC50 (read off the curve) (Human 4-1BB His [5]) [nM]	EC50 (read off the curve) (Human 4-1BB His [6]) [nM]	EC50 (read off the curve) (Human 4-1BB His [7]) [nM]	Kd (Human-TNFR2-His [8]) [nM]	koff (Human-TNFR2-His [8]) [s⁻¹]	kon (Human-TNFR2-His [8]) [M⁻¹ s⁻¹]	EC50 (read off the curve) (Human-TNFR2-His [9]) [nM]	EC50 (read off the curve) (Human-TNFR2-His [10]) [nM]	EC50 (read off the curve) (Human-TNFR2-His [11]) [nM]	EC50 (read off the curve) (Human-TNFR2-His [12]) [nM]	Binder
14.2	0.00553	391000	~0.05	~0.05	~0.05	~0.05	~0.1	~0.07	–	–	–	–	–	–	–	Positive control (anti-4-1BB antibody, human IgG1) (antibody, V domains shown, also called control antibody) VH: QVQLQESGPGLVKPSETLSLTCTVSGSSLTSYGVHWVRQPPGKGLEGLGVIWPGGSTNYNSALMSRVTISKDNSKSQVSLKMSSLTAADTAVYYCARVTGTWYFDVWGQGTTVTVSS VL: DIQMTQSPSSLSASLGDRVTISCSASQGISNYLNWYQQKPDGTVKLLIYYTSTLHSGVPSRFSGSGSGTDYTLTISSLQPEDIATYYCQQYSKLPWTFGGGTKLEIK
–	–	–	–	–	–	–	–	–	1.61	0.000427	266000	~0.04	~0.04	0.04 to 0.05	0.1 to 0.2	Positive control 2 (anti-TNFR2 VHH) (VHH) VHH: EVQLVESGGGLVQPGGSLRLSCAASGSRLDYYAVAWFRQAPGKEREEVSCITYSGGSTNYAESVKGRFTISRDNSKNTLYLQMNSLRAEDTAVYYCTTEPYGSSCPLSGYDTWGQGTLVTVSS
